Consider 15 sequences from the supplement of paper PMC9170038.

Data set [1] deals with MS2 coat protein. The experiment in a line: apparent KD of MS2 coat protein, switch OFF state (with FMN for OFF switches, without FMN for ON switches); designed switch direction (-1 OFF switch, 1 ON switch): -1; higher = weaker reporter binding. To be noted: FMN input: 0 or 200 uM; Eterna round: R93 (includes R88 designs). The gist of the method:
(§1)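 Apparent KD per design is the median of normalised cluster binding-curve fits. Designed RNA switches transcribed on-chip from Illumina sequencing clusters were titrated with SNAP-549-labelled MS2 coat protein in twofold steps from 0.7 or 1.5 nM to 3 µM, with 0.8–1.5 h down to 10–20 min per step. Buffer: 100 mM Tris-HCl pH 7.5, 80 mM KCl, 4 mM MgCl2, without or with constant ligand.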

The subject of data set [2] is MS2 coat protein. The experiment in a line: apparent KD of MS2 coat protein, switch ON state; designed switch direction (-1 OFF switch, 1 ON switch): -1; higher = weaker reporter binding. The conditions noted are these: FMN input: 0 or 200 uM; Eterna round: R93 (includes R88 designs). The gist of the method:
as §1

For the sequence “AAGUACUCAGGAUAUACAUGAGGAUCACCCAUGUGAAAAAAGCGUAAAAAACGCACAUGUAGAAGGGAGUACAA [JL In thr Red Again]”, the “apparent KD of MS2 coat protein” value in data set [1] worked out at 333 nM; in data set [2], 122 nM.
The like results for “AAGUUAUUAGGAUAUACUAGUGCAAUUAAUACGCUGAUAGUACAUGAGGAUCACCCAUGUAGAAGGAAUAAAAA [Mat - Exclusion 2 - JL mod - D66]” were, in that order, 20.6 nM and 30.5 nM.
For the sequence “AAGUUAUUAGGAUAUACUAGUGCGAUUAAUACGCUGAUAGUACAUGAGGAUCACCCAUGUAGAAGGAAUAAAAA [JR_Exc002_Sub409]”, the “apparent KD of MS2 coat protein” value came out at 19.1 nM in data set [1] and 35.1 nM in data set [2].
For “AAGUUAUUAGGAUAUACUUGUGCGAUUAAUACGCUGAUAGUACAUGAGGAUCACCCAUGUAGAAGGAAUAAAAA [JR_Exc002_Sub410]”, the “apparent KD of MS2 coat protein” value turned out to be 21.2 nM in data set [1] and 33.4 nM in data set [2].
In the same order, the values of “AAUAAACAUGAGGAUCACCCAUGUCAGGAUAUGCACAAACAAACAAACAAACAAGCAAGCAGAAGGGACACUAC [Amethyst 88]” are 28.6 nM and 25.4 nM.
For the sequence “AAUAAAGGAGGAUAUACUAAAGAAAUGAAAAGAAAUAAAGAACAUGAGGAUCACCCAUGUAGAAGGCCUAAUAA [Yaqub-Har]”, the entries for the “apparent KD of MS2 coat protein” value in data set [1] and in data set [2] were 22.8 nM and 31.3 nM, respectively.
In the same order, the values of “AAUAAGACAGGAUAUACUAAAGAAAUGAAAAGAAAUAAAGAACAUGAGGAUCACCCAUGUAGAAGGGUCAAUAA ['Apepi]” are 32.4 nM and 50.3 nM.
In the same order, the values of “AAUAAGUGAGGAUAUGGAAAUAGUAGAUAAGAUACCCUAAACCAGAAGGCACAUGAGGAUCACCCAUGUAAAUA [JR_Exc004_Sub004]” are 23.7 nM and 32.7 nM.
“AAUAAGUGAGGAUAUGUAAAUAGUAGAUAAGAUUCCCUAAAACAGAAGGCACAUGAGGAUCACCCAUGUAAAUA [JR_Exc004_Sub007]”: the results for the “apparent KD of MS2 coat protein” value in data set [1] and in data set [2] were 19.7 nM and 25.9 nM, respectively.
As for “ACAAAUGUAGGAUAUACAUGAGGAUCACCCAUGUGGCAGAAACAGCAAACAAGACGAAGUAGAAGGACAACGAC [JR_Exc003-Sub902]”, the “apparent KD of MS2 coat protein” value was determined as 28.6 nM in data set [1] and 29.1 nM in data set [2].
For the sequence “ACAGUUACAGGAUAUACAAGGGUAACUUCAAAUAAACCUCUACAUGAGGAUCACCCAUGUAGAAGGGUAACUGA [Ex2 Design 200 (maybe): Random 16]”, the “apparent KD of MS2 coat protein” value in data set [1] was determined as 21.7 nM; in data set [2], 22.8 nM.
The like results for “ACAGUUAGAGGAUAUACGUGGAAAAAUAAAAAUAAAAAACUACAUGAGGAUCACCCAUGUAGAAGGCUAACUGA [Ex2 Design 196: Random 12E]” were, in that order, 66.1 nM and 24.8 nM.
Turning to “ACCAGACAUGAGGAUCACCCAUGUCAGGAUAUAGUAUGAAAAAAAAAAAAAAAAAAUACUAGAAGGGACAAGGG [Design 14: Super Stable Short Helix 5]”, the “apparent KD of MS2 coat protein” value was 63.8 nM in data set [1] and 29.7 nM in data set [2].
The like results for “ACGUUGAGAGGAUAUACGAACAUGUCAAAAGACGUGAAGGGACAUGAGGAUCACCCAUGUAGAAGGCUCAACGA [Mat - Exclusion 2 - JL mod - D9]” were, in that order, 186 nM and 46.3 nM.
The like results for “AGAAACUGAGGAUAUACUUUGGGAAAAGAAAAGAUGAUGUUACAUGAGGAUCACCCAUGUAGAAGGCAGAAAGA [Mat - Exclusion 2 - Mod - D152]” were, in that order, 30.3 nM and 25.5 nM.
